The record followed here is patent US20210267930A1, “MODIFIED ANTIBODY-ALBUMIN NANOPARTICLE COMPLEXES FOR CANCER TREATMENT” (Mayo Foundation for Medical Education and Research, priority 2016, published 2021).

The target of one assay is T1, ABRAXANE® (ABX) (Homo sapiens, UniProt P02768).
T1 construct: purchased Celgene, Summit, N.J
Kind of assay: Binding of antibody to ABX, dissociation constant.

Assay [1] deals with antibody complexation with ABX (bevacizumab). Description: Peptide competition assay on nanoparticle formation with bevacizumab. To be noted: 10-fold molar excess of peptide. On the procedure: Peptides were added at a 10-fold molar excess compared to antibody. Diameter was measured using a Malvern Nanosizer at a 1:200 dilution.
A similar experiment was performed using bevacizumab (FIG. 14B).

The subject of assay [2] is rituximab, trastuzumab, bevacizumab, and muromonab. Description: Biacore surface plasmon resonance, albumin peptide library against antibodies. The assay is classed as binding. The note with it: peptides at 50-1.25 μg/mL in HBS running buffer. On the procedure: (§1) An albumin peptide library was constructed with 18 amino acid peptides, each containing a 6 amino acid overlap, and each albumin peptide was run against rituximab fixed on a CMS chip. Peptides were suspended to 5-10 mg/mL in HBS-EP plus running buffer. Water insoluble peptides were dissolved in 10% DMSO (Sigma-Aldrich, St. Louis, Mo.). Rituximab was immobilized onto Biacore CMS (GE Healthcare, Chicago, Ill.) chips via amine coupling. Biacore X-100 (GE Healthcare, Chicago, Ill.) was used to screen the albumin peptide libraries over immobilized rituximab. Peptides were screened from 1-50 μg/mL with an exposure time of 120 seconds. Biacore X100 software was used to determine binding kinetics.
Peptides were run at 50, 25, 10, 5, 2.5, 1.25 μg/mL in HBS running buffer. Dissociation constants were determined by Biacore Evaluation Software. […] Diana, F. J., Veronich, K. & Kapoor, A. L. Binding of nonsteroidal anti-inflammatory agents and their effect on binding of racemic warfarin and its enantiomers to human serum albumin. J Pharm Sci 78, 195-199 (1989); Sudlow, G., Birkett, D. J. & Wade, D. N. The characterization of two specific drug binding sites on human serum albumin. Mol Pharmacol 11, 824-832 (1975).
(SPR reads the build-up and loss of mass on a sensor chip optically.)

Assay [3] deals with CD20 (membrane bound, on Daudi cells) (human) (UniProt P11836). Kind of assay: flow cytometry on Daudi cells (negative control).
The target is the same in assay [4]. Kind of assay: flow cytometry of Daudi cells, isotype control (negative control).
Another assay has as its target full HSA protein (Homo sapiens, UniProt P02768). Description: Biacore surface plasmon resonance, antibody peptide binding to HSA. An excerpt: FIG. 13B represents binding of bevacizumab variable peptide 1 (SEQ ID NO.: 7) to HSA.
(§2) The sequence of the variable region of the heavy chain where the binding site is located is provided in FIG. 13F for both bevacizumab (SEQ ID NO.: 1) and rituximab (SEQ ID NO.: 2). The 19-AA region of interest is underlined for bevacizumab (SEQ ID NO.: 8—[…]) and rituximab (SEQ ID NO.: 10—[…]), and share about 80% identity. FIG. 13G provides the sequences from each antibody that bind HSA.

Another assay relates to CD20+ Daudi cells. Description: In vitro toxicity assay, EdU proliferation of Daudi cells. It is filed as cell-based, human. To be noted: rituximab 0-200 μg/mL overnight. On the procedure:
The level of proliferation was determined by staining cells with FITC labeled anti-EdU. The proliferation index was calculated by normalization to the untreated positive control.
Cell proliferation was measured with EdU, a thymidine analog, that was detected with a FITC conjugated anti-EdU and enumerated by flow cytometry.
The human B-cell lymphoma line, Daudi, (ATCC Manassa, Va.) were cultured in RPMI with 1% penicillin, streptomycin and glutamine (PSG) and 10% FBS. Cells were harvested and plated at 0.2×10^6 cells per well in 24 well plates. […] To measure proliferation, the Click-iT EdU (Molecular Probes, Eugene, Oreg.) kit was utilized. […] The cells were permeabilized with 1% saponin and intercalated EdU was labeled with a FITC-conjugated antibody. The proliferation index was determined by dividing the FITC positive cells from each treatment by the maximum proliferation of untreated EdU labeled cells.

In the next assay the target is T2, CD20 (Homo sapiens, UniProt P11836).
T2 construct: host or cells: Daudi
T2 sequence (P11836 1-297): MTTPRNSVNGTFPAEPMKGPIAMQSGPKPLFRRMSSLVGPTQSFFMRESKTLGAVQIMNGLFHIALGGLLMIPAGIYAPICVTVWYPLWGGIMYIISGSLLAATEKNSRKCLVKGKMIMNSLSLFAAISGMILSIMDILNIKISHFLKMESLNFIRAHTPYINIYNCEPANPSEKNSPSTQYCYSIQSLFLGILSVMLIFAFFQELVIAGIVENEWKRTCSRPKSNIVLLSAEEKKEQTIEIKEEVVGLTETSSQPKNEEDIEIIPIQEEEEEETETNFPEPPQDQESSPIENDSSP
Description: Blocking of PE-mouse anti-human CD20 binding to CD20+ Daudi cells (flow cytometry). The note with it: Daudi cells pre-incubated with test article. The assay is classed as cell-based. Here is the method:
After incubation, the cells were washed and stained with PE-mouse anti-human CD20 and enumerated by flow cytometry.

For assay [5], the system named is Daudi human lymphoma cells. Description: Daudi human lymphoma xenograft tumor efficacy. The note with it: intravenous. It is filed as in vivo, athymic nude mice. Here is the method:
To test tumor efficacy, 5×10^6 Daudi human lymphoma cells were implanted into the right flank of athymic nude mice (Harlan Sprague Dawley, Indianapolis, Ind.). […] Tumor size was monitored 2-3 times/week and tumor volume was calculated with the following equation: (length*width^2)/2. Mice were sacrificed when the tumor size equaled 10% of the mouse body weight, or about 2500 mm^3. The day 10 percent change from baseline was calculated as follows: [(tumor size on treatment day-tumor size on day 10)/tumor size on treatment day]*100. Kaplan Meier curves were generated and median survival was calculated using GraphPad Prism software (GraphPad Software, Inc, La Jolla, Calif.).
For orientation: In xenograft studies the graft and the host belong to different species.

The target in assay [6] is CD20 (membrane bound, on Daudi cells) (human) (UniProt P11836). Kind of assay: blocking assay by flow cytometry: Daudi cells pre-treated with AR160, washed, stained with PE-mouse anti-human CD20 (the blocked antibody). For orientation: A flow cytometer gives signals particle by particle.
Assay [7] shares this target. Kind of assay: flow cytometry, Daudi cells stained with Alexa-fluor 488 AR160 and PE anti-human CD19 (right panel, upper right quadrant).
For assay [8] the target is unchanged. Description: blocking assay by flow cytometry: Daudi cells pre-treated with pharmacy-made AR160 batch 1, then stained with labelled anti-human CD20 (the blocked antibody).
For assay [9] the target is unchanged. Description: flow cytometry, Daudi cells stained with Alexa-fluor 488 AR160 alone (middle panel, upper right quadrant).
Assay [10] shares this target. Description: blocking assay by flow cytometry: Daudi cells pre-treated with lab-made AR160, then stained with labelled anti-human CD20 (the blocked antibody).
Assay [11] has the same target. Description: flow cytometry, Daudi cells stained with Alexa-fluor 488 AR160 and PE anti-human CD19 (right panel, upper left quadrant).
For assay [12] the target is unchanged. Kind of assay: flow cytometry on Daudi cells, ABX labelled with Alexa fluor 488.
In a further assay the target is HSA peptide 40 (Homo sapiens, UniProt P02768). Description: Biacore surface plasmon resonance, antibody binding to HSA peptide 40. On the procedure:
as §1, §2

A further assay deals with T3, HSA peptide 4 (Homo sapiens, UniProt P02768).
T3 construct: An albumin peptide library was constructed with 18 amino acid peptides
Description: Biacore surface plasmon resonance, antibody binding to HSA peptide 4. On the procedure:
as §1, §2

Assay [13] has as its target CD20 (membrane bound, on Daudi cells) (human) (UniProt P11836). Description: blocking assay by flow cytometry: Daudi cells pre-treated with ABX, washed, stained with PE-mouse anti-human CD20.
For assay [14] the target is unchanged. Kind of assay: blocking assay by flow cytometry: Daudi cells pre-treated with ABX, then stained with labelled anti-human CD20.
The target of assay [15] is T4, human serum albumin (HSA) (human, UniProt P02768 25-609).
T4 construct: also called full HSA protein
Description: SPR (Biacore) of antibody variable-region peptides with full HSA.

As to bevacizumab, the “binding affinity to ABX” value with ABRAXANE® (ABX) is recorded as “bind with a high affinity”.

As to “HSA peptide 40: HSA amino acids 455-472, SEQ ID NO.: 5; maps to the Sudlow II site”, the “effect on particle size increase indicative of antibody complexation with ABX” value in assay [1] is listed as “prevent the 30 nm increase in particle size”. Besides, the “binding to the antibodies” value in assay [2] was “found to bind the antibodies”.

With isotype control antibody, in assay [3], the % positive cells turned out to be 6.2%. For the same molecule, in [4], the % cells in the CD20+ gate amounted to 6.2%.

Regarding “muromonab peptide: peptide from muromonab corresponding to the albumin-binding region; probably SEQ ID NO.: 12 (DDHYCLDYWGQGTTLTVSSA)”, the “binding to the full HSA protein” value in the assay with full HSA protein is “did not bind”.

In the case of rituximab, in the assay with ABRAXANE® (ABX), the “binding affinity to ABX” value is listed as “bind with a high affinity” and the “dissociation constant for ABX” value is on record as “in the picomolar range”. In addition, the “toxicity to Daudi cells” value in the assay on CD20+ Daudi cells is listed as “not toxic”. Also, the “inhibition of subsequent binding of anti-human CD20 antibody” value with CD20 was “prohibit subsequent binding of the anti-human CD20 antibody”. Further, in assay [5] (RIT 12 mg/kg), the median survival was 8 days, the “mice having responses by day 10” value is 0% and the “percentage of mice alive at day 10” value stood at 12%. Moreover, in assay [5] (RIT 18 mg/kg), the median survival turned out to be 10.5 days, the “mice having responses by day 10” value is recorded as 0% and the “percentage of mice alive at day 10” value is listed as 38%.

As to “AR160 (rituximab-albumin-paclitaxel nanoparticle complex) (from UniProt P02768 25-609)”, the % cells in the CD20+ gate after pre-treatment was 6.6% in assay [6], 8.2% in assay [8] and 6.6% in assay [10]. Moreover, the % of cells in the AR160+ CD19+ quadrant stood at 73.8% in assay [7] and 15.8% in [9]. The % of cells in the AR160+ CD19- quadrant in [11] worked out at 3.95%. The molecule also yielded a % positive cells in assay [12] of 75%.

With “Bev Peptide 1: bevacizumab peptide, amino acids 111-125, SEQ ID NO.: 7 (DTAVYYCAKYPHYYGSSHWYF)”, the “effect on particle size increase indicative of antibody complexation with ABX” value in assay [1] is listed as “prevent the 30 nm increase in particle size”.

Consider muromonab, for which the “binding to HSA peptide 40” value with HSA peptide 40 is “bound”. In addition, in the assay with HSA peptide 4, the “binding to HSA peptide 4” value is on record as “bound”.

As for “ABRAXANE® (albumin-bound paclitaxel nanoparticles) (from UniProt P02768 25-609)”, the % cells in the CD20+ gate after pre-treatment in [13] and in [14] was 82.9% each time.

With DDHYCLDYWGQGTTLTVSSA [muromonab peptide], the binding result in assay [15] is “no binding”.
